The text below walks through data of publication PMC10786891, “Massively parallel profiling of RNA-targeting CRISPR-Cas13d”.

To fix the notation:
T1: EsCas13d, nuclease-dead (Eubacterium siraeum, UniProt B0MS50, R295A;H300A;R849A;H854A)
T1 sequence: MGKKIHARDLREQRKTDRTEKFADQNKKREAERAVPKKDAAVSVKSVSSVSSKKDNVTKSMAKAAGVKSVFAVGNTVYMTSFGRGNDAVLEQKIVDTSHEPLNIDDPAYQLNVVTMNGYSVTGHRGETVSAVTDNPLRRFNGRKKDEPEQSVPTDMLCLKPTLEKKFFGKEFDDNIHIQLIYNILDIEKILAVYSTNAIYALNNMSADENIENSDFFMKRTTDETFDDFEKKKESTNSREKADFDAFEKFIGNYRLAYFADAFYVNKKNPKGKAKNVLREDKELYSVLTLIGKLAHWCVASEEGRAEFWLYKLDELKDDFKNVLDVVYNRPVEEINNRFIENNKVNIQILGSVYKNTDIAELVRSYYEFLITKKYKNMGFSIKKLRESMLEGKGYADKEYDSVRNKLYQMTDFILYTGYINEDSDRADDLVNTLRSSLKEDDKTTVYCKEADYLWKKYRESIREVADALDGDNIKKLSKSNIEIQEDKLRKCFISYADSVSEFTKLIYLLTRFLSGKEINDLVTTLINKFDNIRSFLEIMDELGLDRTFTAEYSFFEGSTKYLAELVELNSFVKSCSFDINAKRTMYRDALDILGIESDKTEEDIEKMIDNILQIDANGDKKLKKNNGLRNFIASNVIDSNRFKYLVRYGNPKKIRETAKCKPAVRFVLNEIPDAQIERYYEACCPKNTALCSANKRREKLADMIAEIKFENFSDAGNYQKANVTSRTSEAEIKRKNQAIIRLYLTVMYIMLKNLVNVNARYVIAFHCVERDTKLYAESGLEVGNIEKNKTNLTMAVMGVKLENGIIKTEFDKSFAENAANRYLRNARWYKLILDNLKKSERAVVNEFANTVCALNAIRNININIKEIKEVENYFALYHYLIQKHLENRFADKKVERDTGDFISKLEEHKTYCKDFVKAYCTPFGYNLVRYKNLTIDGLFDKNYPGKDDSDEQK

B1: target 1 insU 3' of 22,insG 3' of 19 (mixed)
RNA 1: CACCCGUGCAAAAAUGCAGGGGUCUAAAACUGAGCGGAUAACCUCUCUAUGG
RNA 2: GGGAAUGGAUCCACAUCUACGAAUUCGUACUCAUGAGAGAGGUUAUCCGCUCACCGAGAUCGGAAGAGCACACGU
B2: target 1 insC 3' of 10,insU 3' of 7 (mixed)
RNA 1: CACCCGUGCAAAAAUGCAGGGGUCUAAAACUGAGCGGAUAACCUCUCUAUGG
RNA 2: GGGAAUGGAUCCACAUCUACGAAUUCGUACCAUAGAGAGGUUCAUCUCGCUCACCGAGAUCGGAAGAGCACACGU
B3: target 1 G12U,A16U (mixed)
RNA 1: CACCCGUGCAAAAAUGCAGGGGUCUAAAACUGAGCGGAUAACCUCUCUAUGG
RNA 2: GGGAAUGGAUCCACAUCUACGAAUUCGUACCAUAGUGAGUUUAUCCGCUCACCGAGAUCGGAAGAGCACACGU
B4: target 1 C2G,U10A (mixed)
RNA 1: CACCCGUGCAAAAAUGCAGGGGUCUAAAACUGAGCGGAUAACCUCUCUAUGG
RNA 2: GGGAAUGGAUCCACAUCUACGAAUUCGUACCAUAGAGAGGUAAUCCGCUGACCGAGAUCGGAAGAGCACACGU
B5: target 1 C7A,C22A (mixed)
RNA 1: CACCCGUGCAAAAAUGCAGGGGUCUAAAACUGAGCGGAUAACCUCUCUAUGG
RNA 2: GGGAAUGGAUCCACAUCUACGAAUUCGUAACAUAGAGAGGUUAUACGCUCACCGAGAUCGGAAGAGCACACGU
B6: target 1 insA 3' of 19,insG 3' of 14 (mixed)
RNA 1: CACCCGUGCAAAAAUGCAGGGGUCUAAAACUGAGCGGAUAACCUCUCUAUGG
RNA 2: GGGAAUGGAUCCACAUCUACGAAUUCGUACCAUAAGAGAGGGUUAUCCGCUCACCGAGAUCGGAAGAGCACACGU
B7: target 1 A1U,U3A (mixed)
RNA 1: CACCCGUGCAAAAAUGCAGGGGUCUAAAACUGAGCGGAUAACCUCUCUAUGG
RNA 2: GGGAAUGGAUCCACAUCUACGAAUUCGUACCAUAGAGAGGUUAUCCGCACUCCGAGAUCGGAAGAGCACACGU
B8: target 1 del7,del20 (mixed)
RNA 1: CACCCGUGCAAAAAUGCAGGGGUCUAAAACUGAGCGGAUAACCUCUCUAUGG
RNA 2: GGGAAUGGAUCCACAUCUACGAAUUCGUACCUAGAGAGGUUAUCGCUCACCGAGAUCGGAAGAGCACACGU
B9: target 1 insA 3' of 21,insG 3' of 10 (mixed)
RNA 1: CACCCGUGCAAAAAUGCAGGGGUCUAAAACUGAGCGGAUAACCUCUCUAUGG
RNA 2: GGGAAUGGAUCCACAUCUACGAAUUCGUACCAAUAGAGAGGUUGAUCCGCUCACCGAGAUCGGAAGAGCACACGU
B10: target 1 insG 3' of 22,insG 3' of 14 (mixed)
RNA 1: CACCCGUGCAAAAAUGCAGGGGUCUAAAACUGAGCGGAUAACCUCUCUAUGG
RNA 2: GGGAAUGGAUCCACAUCUACGAAUUCGUACGCAUAGAGAGGGUUAUCCGCUCACCGAGAUCGGAAGAGCACACGU
B11: target 1 del13,del16 (mixed)
RNA 1: CACCCGUGCAAAAAUGCAGGGGUCUAAAACUGAGCGGAUAACCUCUCUAUGG
RNA 2: GGGAAUGGAUCCACAUCUACGAAUUCGUACCAUAGGAGUUAUCCGCUCACCGAGAUCGGAAGAGCACACGU
B12: target 1 insG 3' of 21,insG 3' of 2 (mixed)
RNA 1: CACCCGUGCAAAAAUGCAGGGGUCUAAAACUGAGCGGAUAACCUCUCUAUGG
RNA 2: GGGAAUGGAUCCACAUCUACGAAUUCGUACCGAUAGAGAGGUUAUCCGCUCGACCGAGAUCGGAAGAGCACACGU
B13: target 1 insU 3' of 22,insC 3' of 13 (mixed)
RNA 1: CACCCGUGCAAAAAUGCAGGGGUCUAAAACUGAGCGGAUAACCUCUCUAUGG
RNA 2: GGGAAUGGAUCCACAUCUACGAAUUCGUACUCAUAGAGAGCGUUAUCCGCUCACCGAGAUCGGAAGAGCACACGU
B14: target 1 insU 3' of 15,insA 3' of 5 (mixed)
RNA 1: CACCCGUGCAAAAAUGCAGGGGUCUAAAACUGAGCGGAUAACCUCUCUAUGG
RNA 2: GGGAAUGGAUCCACAUCUACGAAUUCGUACCAUAGAGUAGGUUAUCCGACUCACCGAGAUCGGAAGAGCACACGU
B15: target 1 U3G,C21U (mixed)
RNA 1: CACCCGUGCAAAAAUGCAGGGGUCUAAAACUGAGCGGAUAACCUCUCUAUGG
RNA 2: GGGAAUGGAUCCACAUCUACGAAUUCGUACUAUAGAGAGGUUAUCCGCGCACCGAGAUCGGAAGAGCACACGU
B16: target 1 U8G,U19G (mixed)
RNA 1: CACCCGUGCAAAAAUGCAGGGGUCUAAAACUGAGCGGAUAACCUCUCUAUGG
RNA 2: GGGAAUGGAUCCACAUCUACGAAUUCGUACCAGAGAGAGGUUAGCCGCUCACCGAGAUCGGAAGAGCACACGU
B17: target 1 insG 3' of 19,insG 3' of 8 (mixed)
RNA 1: CACCCGUGCAAAAAUGCAGGGGUCUAAAACUGAGCGGAUAACCUCUCUAUGG
RNA 2: GGGAAUGGAUCCACAUCUACGAAUUCGUACCAUGAGAGAGGUUAUGCCGCUCACCGAGAUCGGAAGAGCACACGU
B18: target 1 A9U,A20C (mixed)
RNA 1: CACCCGUGCAAAAAUGCAGGGGUCUAAAACUGAGCGGAUAACCUCUCUAUGG
RNA 2: GGGAAUGGAUCCACAUCUACGAAUUCGUACCCUAGAGAGGUUUUCCGCUCACCGAGAUCGGAAGAGCACACGU
B19: target 1 insU 3' of 4,insG 3' of 4 (mixed)
RNA 1: CACCCGUGCAAAAAUGCAGGGGUCUAAAACUGAGCGGAUAACCUCUCUAUGG
RNA 2: GGGAAUGGAUCCACAUCUACGAAUUCGUACCAUAGAGAGGUUAUCCGCUGUCACCGAGAUCGGAAGAGCACACGU
B20: target 1 U3G,U11A (mixed)
RNA 1: CACCCGUGCAAAAAUGCAGGGGUCUAAAACUGAGCGGAUAACCUCUCUAUGG
RNA 2: GGGAAUGGAUCCACAUCUACGAAUUCGUACCAUAGAGAGGAUAUCCGCGCACCGAGAUCGGAAGAGCACACGU
B21: target 1 insA 3' of 11,insC 3' of 10 (mixed)
RNA 1: CACCCGUGCAAAAAUGCAGGGGUCUAAAACUGAGCGGAUAACCUCUCUAUGG
RNA 2: GGGAAUGGAUCCACAUCUACGAAUUCGUACCAUAGAGAGGUAUCAUCCGCUCACCGAGAUCGGAAGAGCACACGU
B22: target 1 del8,del15 (mixed)
RNA 1: CACCCGUGCAAAAAUGCAGGGGUCUAAAACUGAGCGGAUAACCUCUCUAUGG
RNA 2: GGGAAUGGAUCCACAUCUACGAAUUCGUACCAUAGAAGGUUACCGCUCACCGAGAUCGGAAGAGCACACGU
B23: target 1 U8A,G17A (mixed)
RNA 1: CACCCGUGCAAAAAUGCAGGGGUCUAAAACUGAGCGGAUAACCUCUCUAUGG
RNA 2: GGGAAUGGAUCCACAUCUACGAAUUCGUACCAUAAAGAGGUUAACCGCUCACCGAGAUCGGAAGAGCACACGU
B24: target 1 insA 3' of 10,insU 3' of 4 (mixed)
RNA 1: CACCCGUGCAAAAAUGCAGGGGUCUAAAACUGAGCGGAUAACCUCUCUAUGG
RNA 2: GGGAAUGGAUCCACAUCUACGAAUUCGUACCAUAGAGAGGUUAAUCCGCUUCACCGAGAUCGGAAGAGCACACGU
B25: target 1 C6G,U11A (mixed)
RNA 1: CACCCGUGCAAAAAUGCAGGGGUCUAAAACUGAGCGGAUAACCUCUCUAUGG
RNA 2: GGGAAUGGAUCCACAUCUACGAAUUCGUACCAUAGAGAGGAUAUCGGCUCACCGAGAUCGGAAGAGCACACGU
B26: target 1 insU 3' of 22,insU 3' of 2 (mixed)
RNA 1: CACCCGUGCAAAAAUGCAGGGGUCUAAAACUGAGCGGAUAACCUCUCUAUGG
RNA 2: GGGAAUGGAUCCACAUCUACGAAUUCGUACUCAUAGAGAGGUUAUCCGCUCUACCGAGAUCGGAAGAGCACACGU
B27: target 1 C6G,A9G (mixed)
RNA 1: CACCCGUGCAAAAAUGCAGGGGUCUAAAACUGAGCGGAUAACCUCUCUAUGG
RNA 2: GGGAAUGGAUCCACAUCUACGAAUUCGUACCAUAGAGAGGUUGUCGGCUCACCGAGAUCGGAAGAGCACACGU

This data set has as its target T1, EsCas13d, nuclease-dead. Briefly: crRNA (strand 1, pre-loaded); Mg2+; 40 mM Tris-HCl pH 7.5, 150 mM NaCl, 6 mM MgCl2, 1 mM DTT, 0.1% Tween-20, 0.2 mg/ml BSA; 25 C; 10 min per concentration, then washed. The conditions noted are these: tags: His6-TwinStrep-SUMO cleaved; N-terminal SNAP kept (SNAP-Surface 488); label: 3' end held by stalled T7 RNA polymerase.
As to B1, the Kd stood at 86 ± 19 nM. Under B2 stands 19.2 ± 1.3 nM. As for B3, the figure is 79 ± 18 nM; as for B4, 12.7 ± 1.3 nM. As for B5, the figure is 12.1 ± 0.5 nM; as for B6, 28.6 ± 1.5 nM; as for B7, 7.2 ± 0.6 nM. For B8, the affinity, expressed as Kd, was 39 ± 4 nM. As for B9, the figure is 59 ± 24 nM; as for B10, 28.6 ± 3.5 nM; as for B11, 94 ± 28 nM. For B12, the affinity, expressed as Kd, was 61 ± 13 nM. Consider B13, for which the Kd is 88 ± 32 nM. Under B14 stands 21.7 ± 2.1 nM; under B15, 11 ± 1.2 nM.

In turn, B16 registered a Kd of 79 ± 15 nM.

Consider B17, for which the affinity, expressed as Kd, was 58 ± 6 nM. Under B18 stands approximately 53 nM; under B19, 8.9 ± 0.8 nM. In the case of B20, the Kd worked out at 14.2 ± 1.3 nM.

With B21, the Kd came out at 14.6 ± 0.7 nM.

Turning to B22, binding was put at a Kd of 37.8 ± 3 nM.

As for B23, the Kd is 92 ± 17 nM. As for B24, binding was put at a Kd of 9.3 ± 0.6 nM. Under B25 stands 25.4 ± 0.9 nM.

The molecule B26 had a Kd of 35.9 ± 2.9 nM.

In turn, B27 displayed a Kd of 10.6 ± 0.9 nM.
